Tests used:
Test in all cases: SEC; purified, untagged mature regions of the proteins analysed by size exclusion chromatography; SDS-PAGE with and without β-mercaptoethanol was run alongside
[1] = target: Bacillus amyloliquefaciens BslA(42-181) (Bacillus amyloliquefaciens FZB42)
[2] = target: Bacillus licheniformis BslA(40-179) (Bacillus licheniformis DSM13)
[3] = target: Bacillus pumilus BslA(37-177) (Bacillus pumilus SAFR-032)
[4] = target: the molecule itself

## Bacillus amyloliquefaciens BslA(42-181) (domain or fragment)
[1]
  stoichiometry N: 2

## Bacillus licheniformis BslA(40-179) (domain or fragment)
[2]
  stoichiometry N: 2

## Bacillus pumilus BslA(37-177) (domain or fragment)
[3]
  stoichiometry N: 2

B1: Bacillus subtilis BslA(42-181) (domain or fragment, B. subtilis, UniProt P71014 42-181, looked up)
chain: MRTQSTASLFATITGASKTEWSFSDIELTYRPNTLLSLGVMEFTLPSGFTANTKDTLNGNALRTTQILNNGKTVRVPLALDLLGAGEFKLKLNNKTLPAAGTYTFRAENKSLSIGNKFYAEASIDVAKRSTPPTQPCGCN
notes: BslA of Bacillus subtilis, truncated protein BslA 42-181 (mature region), on which the previous analyses were based; also called Bs-BslA; source: E. coli BL21 (DE3) pLysS, purified (Glutathione Sepharose, TEV cleavage, SEC)
[4]
  stoichiometry N: 2
